The data set is described as follows: protease stability score; higher = more stable; yeast display proteolysis, trypsin and chymotrypsin.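 Note: log10 excess protease needed over predicted unfolded state with 0 meaning unfolded.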

For the sequence “DEDAHRRASTLMTAIENNDPHKVMQMFDEDAKVDVGDKRVSGRERQAEEERERNTQSRVRYKSYKIDAQGNKVRVHADFEVHHNGRPDRKRMKAVFNYDNGKIKQATVKDDK”, the protease stability score is -0.235.

For “DEDAIRSVEKMLQDRRTGNPHEVQKMFDPNAQVDVGDKTVQGRENIKDHVETDLRQSRFHMEIKHVQAHNGQIDIDAERSYTRNGQPDSNRVEIVIDIKNGKIRSVKVRTDD”, the protease stability score was -0.488.

For the sequence “DEDAIRVANEILKAIKEGDPHQIEEQFDKHARATYGDKTIEGSKNIMNFQKQMMDRASIKIDSVRLKNQGDHANLDYRAKVTHNGTPNDRRFTADVTVRNGKMRVFDVESRP”, the protease stability score is -0.365.

“DEDAKKQVETMIRLIERGNEKEIKKQMDPNATYQVGDNRLHGMDQVNKHLKDLKEQMRFVFDVKSITVRGDKVDIDLQLDKNENGRPDKEDARMIVHVHNGSVKSVIVTTRG” came in with a protease stability score of 0.143.

In turn, “DEDAKRSLNELWKAIQQGDPDRIRELIDKNVRLRYGEKRIHGRDQAAKFWHDLHDHARFKVRDVSIKIHNGRADVRMRMTIHINGEPLDVTVIYKIEFHNGQAVRIELEVDEDQLRKQRK” showed a protease stability score of 0.845.

On to “DEDAKRVANEISKAFDQNDPDKARQLADENAEVQIGDKVLHGRDQATNQLERQREEQNEHVDSVEIDVDGDKLKVRIHFNSHSNGRPRRNTRTYTIVVRNGHLQHLDMKENG”, for which the protease stability score is -0.246.

Turning to “DEDALDLLEKAARAYQTGDPDQLMRNLDEDAKVDVGDKKIRGRNDARRHLQELKDKIELHLHVTEMSVQGNKVHAHFKLHSDQNGKPYHTDVEMRADVHNGRVKRMEIRTTK”, the protease stability score was -0.159.

In the case of “DEDALDQVEEMMRNNNEQEIADRADKDVEVEYGDHELHGREDMQDWAEKWQQQVDHLEVKSVHKKGDHFKMKLRAVFNGQEYTFVMVVEVHNGKIKNIKYDATSKEVKEIQKEVLK”, the protease stability score is -0.163.

For “DEDALKQMHENLENIKEGDPDKIKKMFDENARVEVGDKVLNGRDQASKFWSELRDQINIHIRDVKLSVSGEEVTINIDARFTHNGQPQTSIFRIEAELHNGTIKSLRVKLDG”, the protease stability score came out at 2.02.

For the sequence “DEDALRKFKEFLEIKREGDERRLLELFDENVKIVVGDTELEGMTEAARDITRKRKEMRVEQRYDRFHVQGEHIRARARFTVKFNGRPHTNENTFRVVLRNGHYKSYELKIDPDELRKLDS”, the protease stability score was -0.083.

In the case of “DEDALRNWEQFIRNYKHGDETELQKLVDPNVHVRIGDREIHGREKLREHWRRQKEHARVDINVRSLEDQGSKVQVTFKMQYQVNGQPKHNSMRMEFTVRNGRIVEASYQFDPDEHRKLQS”, the protease stability score is 1.23.

Turning to “DEDALRVFDKLVKAWKNNDEDKMKKLMDPNVKVEYGDKQVHGMDEYLHSMVTRQRQIRVHFRVKDIKTRPGRVVANYEVEEENDGKPHHTKVRVTLKVHNGRVKQAEYDVKP”, the protease stability score is 0.017.

“DEDALTRIEDAAKHMNEGNFERYADMADPNAHVNIGDKTYQGRESLKHLMQEQRERWEFKLDVRRVDQDGEKAVVTAKVNQKHNGKPDTKTVYIYVSWKNGRAQEIEVRQDS” gave a protease stability score of 0.319.

The sequence “DEDALTRLREFDDNVRKGNKHRLQDLMDPNVKVRYGDTEIKGREHVAKELKKLVDTMHIEIDYKSMSAEGNHATLTAEVVVQVNGRPIKFRMHVQVQFENGKIKELVYRFSEDAQKKMDG” had a protease stability score of 1.53.

On to “DEDAMKRFKDLLRAQETGDEHRIRELVDPNAQFVIGDRKITGREEYVRIFREERENMHIDLEVKSVSVKGNKLTIHLTFKVDHNGKPMRASAQIQVKIRNGRIQEVQYDFDEDQLRKLKR”, for which the protease stability score is 0.32.

For the sequence “DEDANDVVRKYIEAVNTGDPDQVNELVDPNVRVEVGDKTLSGHEEIRKEQQERTKQSRVEIEVKQMKVHGDNIILYAVVRYNHNGKPSSRHVKMTFSAHNGHFKHIRVHDDQ”, the protease stability score worked out at 0.809.

Take “DEDANENIRKQLEWEEKGNPQQAKKQADPNAQFNIGDHTFNGMDEYMHWVKRELTHLRIEIKDVKFDVQGEKIEIDVRFVVDENGRPKEDRQDFDVTMHNGHIHNINVDKIS”: the protease stability score is -0.21.

Consider “DEDANHRFKDQVRAIKTGDSKRVEELVDPNVHNHVGEWRVHGSTHWATLAKQVRDEMRVDLDIKSVENSGNKLNIDANVIIDHNGKPHRNQVNWNVNNHNGRIQEASAKKSN”, for which the protease stability score is -0.484.

With “DEDANKVMKKVVEAIKEGDPDTIRKLVDPNARVNVGDTTVNGREEFARQNHEKMNQSRIHYLSMDFEQREGHAVVTVRFEKHHNGKPDTDRYRATANFKNGKLTEYKQKEDG”, the protease stability score is -0.291.

Take “DEDANNTAKEMLENIDEGNEKRWSELMDENATFNVGDKTYHGRENAEHLFRERKDEMRIEIDLHKVEVSGDHVVLDITVVKEHNGKPRRVDVQVEFRIHNGRMQEFVQDEHG”: the protease stability score was 0.245.

Consider “DEDANRELHKAMKHNDWDLLAKQMDKDVSKQVGDKTVHGRDRIQEDIKRLKTEIDHMEIEHVSARGDHLTADVHLVVNGQHVKFVIHIQFDNGRIKQIQWQVRDEDVEKQMKKLKG”, for which the protease stability score is -0.074.

“DEDANRKAEEFAQNLRENDEDRLQQLVDPNARLNVGEFSVHGRTELTHQLRRVTREMRVEVQIRDIRVQNGHAHLDIEVVIDHNGKPSSRVLRMVVDFRNGKIQNLDVRTDQ” yielded a protease stability score of 0.601.

As for “DEDANRKAREYAHAREHGDPRHAREYADPNAEFTVGDKSFHGMQEDVERMERERKEMRVEIKDVQVSAHDGRLTLDLRFVKDNNGQPREVRQNVQFNIENGRATEIDVQETK”, the protease stability score is -0.214.

Consider “DEDANRLVEEYIRAVEKGDEDQARRMMDENVTVKVGDKTVHGHDHQAREMNKVKKQARIEIKDYRLDNSNGRVVIRMTFIADRNGKPITFDIVIIINFHNGRAKNMHVHISEEELKRLEG”, for which the protease stability score worked out at 1.06.

The sequence “DEDANRRLRRLIEQIHENDPDKIDEMFDPNARVDIGDHTVHGREQLRQTVKREAKEIRIRIERLDVRVKGDKATVEMHFVRKNNGEPRSNRVVVTARIRNGKIESMKQTEDG” registered a protease stability score of 0.763.

“DEDAQELAEQLWTAWETGDPRQIQNLMDPNVNFRYGDKTFQGREHLHRLIKDIQENIRIDYRHYSVDVKGDKASIKINIQLHHDGKPETKTNDLTIHFSGDRIQRVEQNDRQ” came in with a protease stability score of 0.248.

As for “DEDAQKQVEKMLQAVREGDDRQIKRLFDPNAEINVGDKHVTGREQATKEMSKRKKEMDIDIKIEEVQVKGDRVELKAVVLENKNGDPQTFHVRAVYHAHNGKIRTNNVEKDG”, the protease stability score is -0.074.

With “DEDAQKRAEEMMHALQNGDEKQIQTLFDKDAKVNVGDKEYHGKEQLAHDLKRRHDKIRVDYKDVHIRAHGDKVSLTFRVRVKINGVPADNSFQFTLKFRNGHVQSMSQQFDPKYEQDQRN”, the protease stability score was -0.033.

For “DEDAQKTVRKFLENITTGNPENAEKLLDPNVHIHYGDKRVSGRDQFHREAKQKLHDMRLSIDIKEVQVQGNRIDVDVRFSVNHNGRPYTITAHLSIEMSNGHIEHMELRIDESDKRRQKR”, the protease stability score is -0.237.

Turning to “DEDAQRQVEELLKAEHEGDPKKFQELADPNVNAIYGDKRVHGRETLADQLAERVREMRVHYDSIDLRVRGNKVNVHINAKFKYNGVPIEISMTVVFVFHNGRLQRREVSIPEEVQTELTR”, the protease stability score was found to be 0.129.

For “DEDAQTQVEKMLKNMQRGDNQEVNKMFDKNVEFRVGDRDIHGREEYARQVSREHKESRVEFRHIHARVKGDHVRIRVDVVRQVNGKPQRMTVEFEVQAHNGKIKRFQVEFDPDEERRVQK”, the protease stability score was 0.196.

As to “DEDARKLAEELLKAQETGDPKTLKRLVDPNVKVDVGDKTFHGMDEINEEVTRTKRRQRVKIDRVSIHVRGDSVVIHVTEKNEKDGQPSSRQYVQEMRVTNGHVVEMKQNKSR”, the protease stability score is -0.468.

In the case of “DEDARKQAQRWITNLNNGNEKEVSKQFDPNARMDVGNRDVHGTEQLLQKLRTRLKQARQSIELRDIDRQGDNLQLDVRMEFVHNGQPDDVRFTVQMNYHNGKIKRANWRIPEEDQKKLER”, the protease stability score is 0.165.

For the sequence “DEDARRKVEEFMDLMRNNNPEELAKLADPNATVHYGDKVVHGREQAMEWWKKFLTELRVDIKSVSIRVSGNKIDVEVDMIVQVNGRPVTLNWRFSFNFNNGKIEQIHVHISEEQQERIHS”, the protease stability score is 0.68.

Take “DEDARRRVHEFFEAIENNDREKLKELADPNVQANYGDKQVRGREQLAEWVDKLHKELRVHFRLKSLDNRGDKIEIRMRVILDINGRPQTQDVTMEMRFHNGRIKHVQVHVDERQLKQKKK”: the protease stability score came out at 0.942.

Turning to “DEDARSNFQELLKALQTGDERLFEKNVDPNVTFRYGDKTLTGRHHIMEQLRRDKENSRQDFDVKEWHFHGNRIDVKAQLRFEKNGKPDTVDVNLVAIAHNGRIQEIQIDVQK”, the protease stability score is -0.278.

“DEDASKELQRLARENDFKRIAELADENASAQIGDNVWHGREKILTNLKRMQDQVDHQRIHSIRTHGNKLRVTVRMVVNGRDFTFRFVIEVENGRVVSIDIKATSEKDKKKMNEVIG”: the protease stability score is -0.158.

“DEDASKQVEDFERALKTGDENRLHELMDKDARVEVGDKRYHGRKQIARQQVQHYEEMRVDLHVQDIDVQGDKIKVDVTRQIEVNGKPISNRIIIYVTIHNGKIQRMDVDVPDEDMDKIEK” returned a protease stability score of 0.769.

As to “DEDASRHVRDMIRALQTGDRDKVARYIDPNATMQVGDKRYHGNERIKEQVKRTKDTMRYHMEIKDVHVEGDHIKVDFTFSNNKNGTPTSDRAQIDIRMTNGHATSIVLHNNK”, the protease stability score is -0.001.

As to “DEDASRRMIEMVENLQTGNEEEFKKYVDPNVRIEYGDKRVSGRDQATKWWRSEFTEIRFSMRVQSYSVDGNKVDITVRATFDHNGKPEDKKYKLDIQLHNGHIKKLEITDDS”, the protease stability score was 1.31.

In the case of “DEDATDNVRQWFEARNQNDENRLMQLVDPNAKIQVGDKFVHGKEDLEKQVKREKDQIHLHMKDMKFTDTGDTVKVRIDYRDEHNGRPKEDRMVAYATVHNGRIENLEVDSDR”, the protease stability score was -0.179.

Turning to “DEDAVKAYERLLTAWNHGDPDQAKHQVDPNVRVQVGDKQIHGREELARQIERRRREANIHNQLEDYRDNGEEIQLHVEVTEDHNGNPDTKTYTAYAQFTNGKMQELTINDHG”, the protease stability score is -0.219.

For “DEDAVKLAQEVWKAMHTGDEDKFVKLVDPNARVKIGDKDIHGKDDIKKQLHNRNREIRVRLKHIEIDQNGDQARIHMRFQMTHDGQPRDQSATATMRAQGDKLKSISVTNHG”, the protease stability score was -0.206.

In turn, “DEDAVKLFHNVQHVIEQGDKDKAVKNFDPNASAKVGDKEVHGMEDWVRTLVKEASQLRIDLKWDDYRVHGDKINMNIELNKEHNGHPSTTRMHIDAHVHNGRVKFVAYNRRP” came in with a protease stability score of 0.066.

“DEDAVKSASNAAQHGDFVRMAEEMRDNPEARYGDKDVRGREEVIRVVRILMEQVDSVKVKRVRVHGEKVTADLKFRVNGREFHANAVVVMDNGRFVKLVLHFTDSDFKHELHKRLE” had a protease stability score of 1.17.

“DEDAVKVAEKFVEVEETGSEDDFKRLADKDAKIRVGENHVHGRESLLDELRKRRKQINIVIHHVRAEDRGDKVDVEIEAVDERNGKPNQYNVKFKVKMHNGRVKQIDRDRDR”: the protease stability score amounted to 0.168.

In turn, “DEDAVNRYEEFVENLKSNNEHKLSEYLDPNVRLVIGDKTLHGKDNFRRRVRHMTKHMRLQLNYKDLKVQGEEIHVHADVRQTHDGKPQNTHFSASMRVNGDKAKEITIKDDG” displayed a protease stability score of 0.207.

The values above are taken from the NTF2 design screens of Basanta et al. (2020).
